Laboratory results reported in PMC7823470, “Arabidopsis Plant Natriuretic Peptide Is a Novel Interactor of Rubisco Activase” (Life, 2020).

Tests used:
RCA = settings: Yeast Two-Hybrid, AtPNP-A lacking the signal peptide; cited from earlier work
plant leaves = system: plant leaves; parameters: method as in 2 sources, ref 13, 20 = [13]; PMID 21550130; doi:10.1016/j.jplph.2011.03.011; 13. Ruzvidzo O. Donaldson L. Valentine A. Gehring C. The Arabidopsis thaliana natriuretic peptide AtPNP-A is a systemic regulator of leaf dark respiration and signals via the phloem J. Plant Physiol. || [20]; PMID 19015524; doi:10.1073/pnas.0810107105; 20. Gottig N. Garavaglia B.S. Daurelio L. Valentine A.J. Gehring C. Orellano E.G. Ottado J. Xanthomonas axonopodis pv. citri uses a plant natriuretic peptide-like protein to modify host homeostasis Pr ||| ref 20 = [20]; PMID 19015524; doi:10.1073/pnas.0810107105; 20. Gottig N. Garavaglia B.S. Daurelio L. Valentine A.J. Gehring C. Orellano E.G. Ottado J. Xanthomonas axonopodis pv. citri uses a plant natriuretic peptide-like protein to modify host homeostasis Pr; settings: cited from earlier work
Description: In the host–pathogens ‘arms race’, bacteria may acquire ‘eukaryotic-like’ genes from their hosts through horizontal gene transfer. […] Tobacco (Nicotiana tabacum) RCA gene is involved in resistance to herbivory, and its down-regulation impaired JA signaling and led to reduced defense against both generalist (Spodoptera littoralis) and specialist (Manduca sexta) herbivore elicitation ...

Rubisco activase (RCA) = test: Affinity isolation with LC-MS/MS; assay type: binding, Arabidopsis thaliana; settings: pAtPNP-A bait vs pScr control
Procedure: Isolation of putative interactors of AtPNP-A was performed as described previously with minor modifications. For each sample, 5 g of plant material was used, no cross-linker was applied, the supernatant was incubated either with the N-terminally biotinylated pAtPNP-A or pScr (negative control) for 15 min. The protein extract mixture was incubated with Dynabeads M-280 (Life Technologies, Singapore) for 30 min. Eluted proteins were separated by SDS-PAGE (10% gels run for 15 min at 100V) and bands visualized with Coomassie Brilliant Blue (Figure S1). Bands were excised for trypsin in-gel digestion of proteins. MS analyses were performed on linear trap quadrupole (LTQ) Orbitrap Velos mass spectrometer (Thermo Scientific, Waltham, MA, USA) under conditions previously described. Scaffold version 4.11.1 (Proteome Software Inc.) was used to validate MS/MS based peptide and protein identification. […] Relative quantification of total spectrum counts of proteins identified with a confidence level of at least 99% at FDR < 0.1 in each sample containing pAtPNP-A or pScr (negative control) from three independent experiments was performed using Scaffold. […] The quantification file as well as the raw data are available via ProteomeXchange with identifier PXD023216, and the MS information is integrated in Supplementary Tables S1–S6.

Pst DC3000 = system: Pst DC3000; parameters: method as in PMID 32409317; settings: exogenous application; cited from earlier work
Description: Tobacco (Nicotiana tabacum) RCA gene is involved in resistance to herbivory, and its down-regulation impaired JA signaling and led to reduced defense against both generalist (Spodoptera littoralis) and specialist (Manduca sexta) herbivore elicitation ...

B1: AtPNP-A: Arabidopsis thaliana PNP, termed AtPNP-A (At2g18660; Q9ZV52) (protein)
chain: AQGKAVYYDPPYTRSACYGTQRETLVVGVKNNLWQNGRACGRRYRVRCIGATYNFDRACTGRTVDVKVVDFCREPCNGDLNLSRDAFRVIANTDAGNIRVVYTPI
modifications: left off: His6, N-terminal, kept
RCA
  Interaction with RCA: strong interactor
Plant leaves
  Leaf photosynthetic rates and apparent photon yield: modulate leaf photosynthetic rates and apparent photon yield
Plant leaves; treatment of plant leaves
  Leaf dark respiration rates: triggers increase in leaf dark respiration rates
  Leaf photosynthetic rates and efficiency of light utilization: regulates leaf photosynthetic rates and efficiency of light utilization during photosynthetic CO2 fixation
  Leaf transpiration rates: higher leaf transpiration rates
  Starch in guard cell chloroplasts: induces starch reduction in guard cell chloroplasts
  Stomatal conductance and stomatal opening: increases stomatal conductance and stomatal opening
Rubisco activase (RCA)
  Identification of RCA as interactor: identified with high confidence
Pst DC3000
  Susceptibility to Pst DC3000: enhanced susceptibility to Pst DC3000
